Results on 1 substance are retold here after patent US11160876B2, “Methods and compositions for targeting t-cell cancers” (Mayo Foundation for Medical Education and Research, priority 2016, dated 2021).

The target of this assay is Abraxane (Homo sapiens, UniProt P02768). Put plainly: Bio-layer interferometry (BLItz) binding affinity of OKT3 and Abraxane. As for the experimental part: To understand the characteristics of the nanoparticles formed when binding OKT3 to Abraxane, the binding affinity of the complex was determined by a Bio-layer interferometry (BLItz) assay, which is an optical technology that uses interference of white light reflection to determine binding affinities of 2 proteins
In a BLItz assay, if the 2 proteins bind, the reflected light changes wavelength in a manner that correlates to the binding affinity of the 2 proteins. Here biotinylated OKT3 at 100 ug/ml was immobilized on a streptavidin-containing probe and exposed to Abraxane at 2 concentrations-500 ug/ml (Run 2) and 1000 ug/ml (Run 3)
In the case of the anti-human CD3 antibody (OKT3) and Abraxane, biotinylated OKT3 at 100 ug/ml was immobilized on a streptavidin-containing probe. The OKT3 bearing probe was then immersed in Abraxane at 2 concentrations, 500 ug/ml and 1000 ug/ml (Run 2 and Run 3). […] The association and dissociation constants on the proteins were calculated by the BLItz software.
Background: Biolayer interferometry detects binding as a change in optical thickness at a sensor tip.

Consider muromonab-CD3 [OKT3], for which the “binding of Abraxane to immobilized OKT3” value (OKT3 bearing probe immersed in Abraxane at 500 ug/ml and 1000 ug/ml (Run 2 and Run 3)) is “concentration dependent manner”. For the same substance, for the setting “biotinylated OKT3 at 100 ug/ml immobilized on streptavidin-containing probe, Abraxane at 500 ug/ml and 1000 ug/ml, calculated by BLItz software, read-out: dissociation constant (Kd) of OKT3 and Abraxane”, the Kd (as a rule, the free concentration of one partner at which half of the binding sites on the other are occupied at equilibrium, for simple one-to-one binding) was 2.25 nM.
